± gives the standard deviation of the averaged measurements.
B1: library; a variant is named by its letters at N, in order (parent)
chain: ACATTTGTTGATACAACCATAAAATGATAATTACACCCATAAATTGATAATTATCACACCCANNNNNNNNNNNNNNCTCTGATCATAGTCAGACCAACATTGCTACGACCCGTATTCGCACCGACAC

Columns and labels:
[1] = variants of: B1; test: relative integration efficiency (T-RL orientation) vs wild-type transposon end (log2 (normalized fold change)); transposon end mutated: right end (5 bp flank + 75 bp right end); higher = more efficient transposition; conditions: with VchCAST RNA-guided transposition machinery (E. coli BL21(DE3) host, lacZ target)
Procedure: (§1)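 Pooled, barcoded VchCAST (Tn6677) mini-transposon donor libraries; each variable transposon-end sequence sits in a fixed pDonor mini-transposon context (10-bp barcode and cargo not included). Left- or right-end libraries were co-transformed with pEffector (TniQ-Cascade, TnsABC, lacZ crRNA, T7, 0.1 mM IPTG) into E. coli BL21(DE3) and grown 18 h at 37 C. T-LR and T-RL junction amplicons were sequenced; output/input barcode fold change was normalised to the mean of four wild-type barcodes and log2-transformed. Two biological replicates; zero-count/undetected variants carry floor values (-10 / -15), censored here. Barcode uncoupling by PCR recombination adds noise.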

[2] = variants of: B1; test: relative integration efficiency (T-LR orientation) vs wild-type transposon end (log2 (normalized fold change)); transposon end mutated: right end (5 bp flank + 75 bp right end); higher = more efficient transposition; conditions: with VchCAST RNA-guided transposition machinery (E. coli BL21(DE3) host, lacZ target)
Procedure: as §1

Row | Variant | relative integration efficiency (log2) [1] | relative integration efficiency (log2) [2]
1 | TAAATTGATATTGC A39T | -0.236 ± 0.061 | -0.533 ± 0.43
2 | TAAATTGATATTGC A39C | -1.23 ± 0.021 | -1.05 ± 0.2
3 | TAAATTGATATTGC A39G | -0.0861 ± 0.07 | -0.449 ± 0.17
4 | TAAATTGATATTGC C18T | 0.131 ± 0.1 | -0.605 ± 0.2
5 | TAAATTGATATTGC C18A | -0.147 ± 0.1 | -0.272 ± 0.024
6 | TAAATTGATATTGC C18G | -0.199 ± 0.036 | -0.152 ± 0.14
7 | AAAATTGATATTGC A62T | -0.47 ± 0.19 | 1.67 ± 0.025
8 | TAAATTGATATTGC A50G | -0.0471 ± 0.15 | 0.0313 ± 0.15
9 | TAAATTGATATTGC A50T | -0.455 ± 0.22 | -0.0702 ± 0.025
10 | TAAATTGATATTGC A50C | -0.321 ± 0.012 | -0.213 ± 0.17
11 | TAAATTGATATTGC G46A | -0.369 ± 0.054 | -0.642 ± 0.19
12 | TAAATTGATATTGC G46C | -0.936 ± 0.067 | -0.847 ± 0.31
13 | TAAATTGATATTGC A56C | -0.0165 ± 0.22 | 0.317 ± 0.21
14 | TAAATTGATATTGC A56T | -0.4 ± 0.052 | 0.0769 ± 0.005
15 | TAAATTGATATTGC A56G | -0.248 ± 0.083 | 0.362 ± 0.33
16 | TAAATTGATATTGC C59A | 0.048 ± 0.078 | -0.0286 ± 0.31
17 | TAAATTGATATTGC C59T | -0.0651 ± 0.0017 | 0.538 ± 0.076
18 | TAAATTGATATTGC C59G | -0.141 ± 0.043 | 0.747 ± 0.024
19 | TAAATTGATATTGC A30G | -0.795 ± 0.13 | -0.2 ± 0.08
20 | TAAATTGATATTGC A30T | -0.464 ± 0.16 | -0.0553 ± 0.55

Row | Variant | relative integration efficiency (log2) [1] | relative integration efficiency (log2) [2]
21 | TAAATTGATATTGC A30C | -0.623 ± 0.12 | -0.195 ± 0.17
22 | TAAATTGATATTGC A29G | -0.169 ± 0.087 | -0.293 ± 0.074
23 | TAAATTGATATTGC A29T | -0.372 ± 0.011 | 0.436 ± 0.063
24 | TAAATTGATATTGC A29C | -0.793 ± 0.055 | -0.254 ± 0.12
25 | TAAATTGATATTGC A42C | -0.945 ± 0.052 | -0.708 ± 0.35
26 | TAAATTGATATTGC A42T | 0.0512 ± 0.029 | -0.0993 ± 0.22
27 | TAAATTGATATTGC A42G | -0.807 ± 0.11 | -1.01 ± 0.016
28 | TAAATTGATATTGC A62T | -0.435 ± 0.12 | 1.36 ± 0.086
29 | TAAATTGATATTGC A62C | -0.726 ± 0.016 | 2.18 ± 0.2
30 | TAAATTGATATTGC A62G | -0.0391 ± 0.14 | 0.97 ± 0.12
31 | TAAATTGATATTGC C55A | -0.759 ± 0.066 | 0.402 ± 0.41
32 | TAAATTGATATTGC C55T | -0.293 ± 0.17 | 0.175 ± 0.29
33 | TAAATTGATATTGC C55G | -0.145 ± 0.21 | 0.0542 ± 0.17
34 | TAAATTGATATTGC A27C | -0.753 ± 0.18 | -0.281 ± 0.16
35 | TAAATTGATATTGC A27G | -0.495 ± 0.11 | -0.445 ± 0.25
36 | TAAATTGATATTGC A27T | -0.915 ± 0.17 | -0.49 ± 0.05
37 | TAAATTGATATTGC C38G | 0.03 ± 0.16 | -0.489 ± 0.06
38 | TAAATTGATATTGC C38A | -0.117 ± 0.04 | -0.451 ± 0.24
39 | TAAATTGATATTGC C38T | 0.335 ± 0.044 | -0.111 ± 0.49
40 | TAAATTGATATTGC G26C | -1.71 ± 0.29 | -1.36 ± 0.46

Row | Variant | relative integration efficiency (log2) [1] | relative integration efficiency (log2) [2]
41 | TAAATTGATATTGC G26A | -0.553 ± 0.15 | -0.268 ± 0.011
42 | TAAATTGATATTGC G26T | -0.472 ± 0.11 | -0.0416 ± 0.43
43 | TAAATTGATATTGC A24T | -0.125 ± 0.1 | -0.0829 ± 0.28
44 | TAAATTGATATTGC A24C | 0.238 ± 0.12 | 0.1 ± 0.21
45 | TAAATTGATATTGC A24G | 0.266 ± 0.047 | 0.156 ± 0.052
46 | TAAATTGATATTGC C2G | 0.0801 ± 0.019 | 0.363 ± 0.28
47 | TAAATTGATATTGC C2T | -0.0194 ± 0.017 | 0.0698 ± 0.22
48 | TAAATTGATATTGC C2A | 0.0243 ± 0.04 | 0.336 ± 0.22
49 | TAAATTGATATTGC A33C | 0.00253 ± 0.071 | 0.14 ± 0.18
50 | TAAATTGATATTGC A33T | -0.264 ± 0.0049 | -0.243 ± 0.38
51 | TAAATTGATATTGC A33G | 0.137 ± 0.055 | -0.127 ± 0.057
52 | TAAATTGATATTGC A49C | -0.518 ± 0.15 | -0.614 ± 0.38
53 | TAAATTGATATTGC A49G | -0.49 ± 0.084 | -0.155 ± 0.12
54 | TAAATTGATATTGC A49T | -0.47 ± 0.16 | 0.117 ± 0.012
55 | TAAATTGATATTGC G7C | -0.529 ± 0.13 | -1.41 ± 0.63
56 | TAAATTGATATTGC G7T | -2.2 ± 0.4 | -3.44 ± 0.49
57 | TAAATTGATATTGC G7A | -0.0765 ± 0.034 | -0.974 ± 0.015
58 | TAAATTGATATTGC A58T | -0.281 ± 0.054 | 1.17 ± 0.41
